Results from patent US20220144922A1.

Experiments:
[1] = target: HMPV F protein (NL/1/00, A1 sublineage), on virus (human metapneumovirus); assay: cell-based or functional assay
[2] = target: RSV F protein of subtype A strain A2, on virus (respiratory syncytial virus subtype A strain A2) (UniProt P03420); assay: cell-based or functional assay
Chain of RSV F protein of subtype A strain A2, on virus (respiratory syncytial virus subtype A strain A2) (P03420 26-574): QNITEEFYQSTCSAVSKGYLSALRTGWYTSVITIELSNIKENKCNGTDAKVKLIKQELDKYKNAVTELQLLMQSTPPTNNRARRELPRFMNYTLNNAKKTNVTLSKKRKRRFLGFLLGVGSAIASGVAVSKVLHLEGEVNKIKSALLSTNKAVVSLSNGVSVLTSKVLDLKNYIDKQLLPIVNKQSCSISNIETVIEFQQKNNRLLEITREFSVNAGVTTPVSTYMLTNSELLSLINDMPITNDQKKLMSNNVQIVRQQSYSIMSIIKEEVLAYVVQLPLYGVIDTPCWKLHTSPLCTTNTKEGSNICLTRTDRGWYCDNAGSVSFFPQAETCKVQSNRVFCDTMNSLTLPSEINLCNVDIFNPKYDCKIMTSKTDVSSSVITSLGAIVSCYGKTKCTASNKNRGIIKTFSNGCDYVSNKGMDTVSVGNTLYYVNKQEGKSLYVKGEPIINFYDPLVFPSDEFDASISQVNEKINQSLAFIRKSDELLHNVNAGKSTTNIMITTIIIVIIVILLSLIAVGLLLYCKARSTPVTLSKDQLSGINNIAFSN

Substance: MPE8 (antibody)
- HMPV-A1 IC50 [1]: 0.07 µg/mL
- RSV-A2 IC50 [2]: 0.04 µg/mL
